Laboratory results published in patent publication US20200390853A1, “ACTIVE PEPTIDE FOR ENHANCING THE PHAGOCYTIC FUNCTIONS OF RETINAL PIGMENT EPITHELIUM AND A USE THEREOF” (Beijing Tongren Hospital, Capital Medical University, priority 2019, published 2020).

B1: Gas6-LamininG active peptide: sequence of EGF-LamininG functional domain of Gas6 protein, amino acid sequence SEQ ID NO.1 (protein)
chain: DQCTPNPCDRKGTQACQDLMGNFFCLCKAGWGGRLCDKDVNECSQENGGCLQICHNKPGSFHCSCHSGFELSSDGRTCQDIDECADSEACGEARCKNLPGSYSCLCDEGFAYSSQEKACRDVDECLQGRCEQVCVNSPGSYTCHCDGRGGLKLSQDMDTCEDILPCVPFSVAKSVKSLYLGRMFSGTPVIRLRFKRLQPTRLVAEFDFRTFDPEGILLFAGGHQDSTWIVLALRAGRLELQLRYNGVGRVTSSGPVINHGMWQTISVEELARNLVIKVNRDAVMKIAVAGDLFQPERGLYHLNLTVGGIPFHEKDLVQPINPRLDGCMRSWNWLNGEDTTIQETVKVNTRMQCFSVTERGSFYPGSGFAFYSLDYMRTPLDVGTESTWEVEVVAHIRPAADTGVLFALWAPDLRAVPLSVALVDYHSTKKLKKQLVVLAVEHTALALMEIKVCDGQEHVVTVSLRDGEATLEVDGTRGQSEVSAAQLQERLAVLERHLRSPVLTFAGGLPDVPVTSAPVTAFYRGCMTLEVNRRLLDLDEAAYKHSDITAHSCPPVEPAAA
modifications: the amino acid sequence of the active peptide
B2: Gas6 full-length proteins: Gas6 full-length proteins used as comparator (protein, UniProt Q14393 1-678, looked up)
chain: MAPSLSPGPAALRRAPQLLLLLLAAECALAALLPAREATQFLRPRQRRAFQVFEEAKQGHLERECVEELCSREEAREVFENDPETDYFYPRYLDCINKYGSPYTKNSGFATCVQNLPDQCTPNPCDRKGTQACQDLMGNFFCLCKAGWGGRLCDKDVNECSQENGGCLQICHNKPGSFHCSCHSGFELSSDGRTCQDIDECADSEACGEARCKNLPGSYSCLCDEGFAYSSQEKACRDVDECLQGRCEQVCVNSPGSYTCHCDGRGGLKLSQDMDTCEDILPCVPFSVAKSVKSLYLGRMFSGTPVIRLRFKRLQPTRLVAEFDFRTFDPEGILLFAGGHQDSTWIVLALRAGRLELQLRYNGVGRVTSSGPVINHGMWQTISVEELARNLVIKVNRDAVMKIAVAGDLFQPERGLYHLNLTVGGIPFHEKDLVQPINPRLDGCMRSWNWLNGEDTTIQETVKVNTRMQCFSVTERGSFYPGSGFAFYSLDYMRTPLDVGTESTWEVEVVAHIRPAADTGVLFALWAPDLRAVPLSVALVDYHSTKKLKKQLVVLAVEHTALALMEIKVCDGQEHVVTVSLRDGEATLEVDGTRGQSEVSAAQLQERLAVLERHLRSPVLTFAGGLPDVPVTSAPVTAFYRGCMTLEVNRRLLDLDEAAYKHSDITAHSCPPVEPAAA
modifications: full-length
notes: Gas6 full-length proteins used as comparator

Columns and labels:
[1] = system: RPE cells; assay: Model of in vitro RPE phagocytosis (disc membrane uptake, laser confocal); type: cell-based; settings: after 3 h of RPE phagocytosis, p<0.05 between groups
[2] = system: AKT phosphorylation level downstream of MerTK; assay: AKT phosphorylation level in RPE cells cultivated in vitro (Western blotting, pAKT/GAPDH); type: cell-based; settings: 200 ng/ml and 800 ng/ml, 30 minutes, vs blank control
Description: Segmented cloning was conducted according to the functional domain of Gas6 protein, wherein the sequence of EGF-LamininG functional domain is the primary active peptide sequence (G3, named as Gas6-LamininG active peptide).

| Molecule | contents of disc membranes taken up (RPE phagocytosis capacity) [1] | Akt phosphorylation level (relative gray value of pAKT/GAPDH) [2] |
| --- | --- | --- |
| B1 | an effect of enhancing the phagocytic functions of retinal pigment epithelium | significantly upregulating Akt phosphorylation levels |
| B2 | – | significantly upregulating Akt phosphorylation levels |
